{"source": "patent US20100028924", "molecular_target": "rHDL-apoA-I (reconstituted discoidal HDL particles carrying apolipoprotein A-I)"}
{"protein": "wt rePON1-192K (protein) MAKLTALTLLGLGLALFDGQKSSFQTRFNVHREVTPVELPNCNLVKGVDNGSEDLEILPNGLAFISSGLKYPGIMSFDPDKSGKILLMDLNEEDPVVLELGITGNTLDISSFNPHGISTFTDEDNTVYLLVVNHPDSSSTVEVFKFQEEEKSLLHLKTIRHKLLPSVNDIVAVGPEHFYATNDHYFADPYLKSWEMHLGLAWSFVTYYSPNDVRVVAEGFDFANGINISPDGKYVYIAELLAHKIHVYEKHANWTLTPLKSLDFDTLVDNISVDPVTGDLWVGCHPNGMRIFYYDPKNPPGSEVLRIQDILSEEPKVTVVYAENGTVLQGSTVAAVYKGKLLIGTVFHKALYCEL", "values": [{"measurement": "A2 (%), amplitude of the slow phase of inactivation on apoA-I rHDL", "result": 100, "unit": "%"}, {"measurement": "Kapp (µM), substrate TBBL", "result": 0.5, "unit": "µM"}, {"measurement": "Kapp (µM), substrate paraoxon", "result": 0.6, "unit": "µM"}, {"measurement": "Kapp (µM), substrate phenyl acetate", "result": 0.5, "unit": "µM"}, {"measurement": "Kapp (µM), substrate γ-dodecanoic lactone", "result": 1.2, "unit": "µM"}, {"measurement": "Kapp (µM), substrate δ-nonanoic lactone", "result": 1.3, "unit": "µM"}, {"measurement": "Kapp (µM), substrate δ-valerolactone", "result": 1.3, "unit": "µM"}, {"measurement": "Vmax (%), enzymatic activation by apoA-I rHDL, substrate TBBL", "result": 791, "unit": "%"}, {"measurement": "Vmax (%), enzymatic activation by apoA-I rHDL, substrate paraoxon", "result": 222, "unit": "%"}, {"measurement": "Vmax (%), enzymatic activation by apoA-I rHDL, substrate phenyl acetate", "result": 425, "unit": "%"}, {"measurement": "Vmax (%), enzymatic activation by apoA-I rHDL, substrate γ-dodecanoic lactone", "result": 1830, "unit": "%"}, {"measurement": "Vmax (%), enzymatic activation by apoA-I rHDL, substrate δ-nonanoic lactone", "result": 1580, "unit": "%"}, {"measurement": "Vmax (%), enzymatic activation by apoA-I rHDL, substrate δ-valerolactone", "result": 1720, "unit": "%"}, {"measurement": "fold higher fraction of HDL-bound protein than the Q isozyme (from inactivation/stability measurements; reference rePON1-192Q)", "result": "a 3-fold higher fraction of HDL-bound protein as revealed from the stability measurements"}]}
{"protein": "rePON1-192Q (protein) MAKLTALTLLGLGLALFDGQKSSFQTRFNVHREVTPVELPNCNLVKGVDNGSEDLEILPNGLAFISSGLKYPGIMSFDPDKSGKILLMDLNEEDPVVLELGITGNTLDISSFNPHGISTFTDEDNTVYLLVVNHPDSSSTVEVFKFQEEEKSLLHLKTIRHKLLPSVNDIVAVGPEHFYATNDHYFADPYLQSWEMHLGLAWSFVTYYSPNDVRVVAEGFDFANGINISPDGKYVYIAELLAHKIHVYEKHANWTLTPLKSLDFDTLVDNISVDPVTGDLWVGCHPNGMRIFYYDPKNPPGSEVLRIQDILSEEPKVTVVYAENGTVLQGSTVAAVYKGKLLIGTVFHKALYCEL", "values": [{"measurement": "A2 (%), amplitude of the slow phase of inactivation on apoA-I rHDL", "result": 70, "unit": "%"}, {"measurement": "Kapp (µM), substrate TBBL", "result": 0.5, "unit": "µM"}, {"measurement": "Kapp (µM), substrate paraoxon", "result": 0.8, "unit": "µM"}, {"measurement": "Kapp (µM), substrate phenyl acetate", "result": 0.8, "unit": "µM"}, {"measurement": "Kapp (µM), substrate γ-dodecanoic lactone", "result": 0.6, "unit": "µM"}, {"measurement": "Kapp (µM), substrate δ-nonanoic lactone", "result": 0.6, "unit": "µM"}, {"measurement": "Kapp (µM), substrate δ-valerolactone", "result": 1.1, "unit": "µM"}, {"measurement": "Vmax (%), enzymatic activation by apoA-I rHDL, substrate TBBL", "result": 340, "unit": "%"}, {"measurement": "Vmax (%), enzymatic activation by apoA-I rHDL, substrate paraoxon", "result": 128, "unit": "%"}, {"measurement": "Vmax (%), enzymatic activation by apoA-I rHDL, substrate phenyl acetate", "result": 165, "unit": "%"}, {"measurement": "Vmax (%), enzymatic activation by apoA-I rHDL, substrate γ-dodecanoic lactone", "result": 382, "unit": "%"}, {"measurement": "Vmax (%), enzymatic activation by apoA-I rHDL, substrate δ-nonanoic lactone", "result": 778, "unit": "%"}, {"measurement": "Vmax (%), enzymatic activation by apoA-I rHDL, substrate δ-valerolactone", "result": 481, "unit": "%"}, {"measurement": "reduction of Vmax of stimulation by rHDL compared to wt rePON1-192K", "result": "50-80% reduction of Vmax compared to wt rePON1-192K"}]}
{"protein": "rePON1-192R (protein) MAKLTALTLLGLGLALFDGQKSSFQTRFNVHREVTPVELPNCNLVKGVDNGSEDLEILPNGLAFISSGLKYPGIMSFDPDKSGKILLMDLNEEDPVVLELGITGNTLDISSFNPHGISTFTDEDNTVYLLVVNHPDSSSTVEVFKFQEEEKSLLHLKTIRHKLLPSVNDIVAVGPEHFYATNDHYFADPYLRSWEMHLGLAWSFVTYYSPNDVRVVAEGFDFANGINISPDGKYVYIAELLAHKIHVYEKHANWTLTPLKSLDFDTLVDNISVDPVTGDLWVGCHPNGMRIFYYDPKNPPGSEVLRIQDILSEEPKVTVVYAENGTVLQGSTVAAVYKGKLLIGTVFHKALYCEL", "values": [{"measurement": "A2 (%), amplitude of the slow phase of inactivation on apoA-I rHDL", "result": 90, "unit": "%"}, {"measurement": "Kapp (µM), substrate TBBL", "result": 0.4, "unit": "µM"}, {"measurement": "Kapp (µM), substrate paraoxon", "result": 0.8, "unit": "µM"}, {"measurement": "Kapp (µM), substrate phenyl acetate", "result": 0.8, "unit": "µM"}, {"measurement": "Kapp (µM), substrate γ-dodecanoic lactone", "result": 0.9, "unit": "µM"}, {"measurement": "Kapp (µM), substrate δ-nonanoic lactone", "result": 1.5, "unit": "µM"}, {"measurement": "Kapp (µM), substrate δ-valerolactone", "result": 1.1, "unit": "µM"}, {"measurement": "Vmax (%), enzymatic activation by apoA-I rHDL, substrate TBBL", "result": 579, "unit": "%"}, {"measurement": "Vmax (%), enzymatic activation by apoA-I rHDL, substrate paraoxon", "result": 200, "unit": "%"}, {"measurement": "Vmax (%), enzymatic activation by apoA-I rHDL, substrate phenyl acetate", "result": 336, "unit": "%"}, {"measurement": "Vmax (%), enzymatic activation by apoA-I rHDL, substrate γ-dodecanoic lactone", "result": 1260, "unit": "%"}, {"measurement": "Vmax (%), enzymatic activation by apoA-I rHDL, substrate δ-nonanoic lactone", "result": 1350, "unit": "%"}, {"measurement": "Vmax (%), enzymatic activation by apoA-I rHDL, substrate δ-valerolactone", "result": 1400, "unit": "%"}, {"measurement": "fold higher fraction of HDL-bound protein than the Q isozyme (from inactivation/stability measurements; reference rePON1-192Q)", "result": "a 3-fold higher fraction of HDL-bound protein as revealed from the stability measurements"}, {"measurement": "reduction of Vmax of stimulation by rHDL compared to wt rePON1-192K", "result": "10-30% reduction of Vmax"}]}
{"protein": "human PON1-192R (protein) AKLIALTLLGMGLALFRNHQSSYQTRLNALREVQPVELPNCNLVKGIETGSEDLEILPNGLAFISSGLKYPGIKSFNPNSPGKILLMDLNEEDPTVLELGITGSKFDVSSFNPHGISTFTDEDNAMYLLVVNHPDAKSTVELFKFQEEEKSLLHLKTIRHKLLPNLNDIVAVGPEHFYGTNDHYFLDPYLRSWEMYLGLAWSYVVYYSPSEVRVVAEGFDFANGINISPDGKYVYIAELLAHKIHVYEKHANWTLTPLKSLDFNTLVDNISVDPETGDLWVGCHPNGMKIFFYDSENPPASEVLRIQNILTEEPKVTQVYAENGTVLQGSTVASVYKGKLLIGTVFHKALYCEL", "values": [{"measurement": "A2 (%), amplitude of the slow phase of inactivation on apoA-I rHDL", "result": 87, "unit": "%"}, {"measurement": "activation level of lactonase activity by rHDL-apoA-I, against 192Q", "result": "about 2-fold higher activation level than 192Q"}, {"measurement": "stated: enzymatic activity stimulated by a 50-fold molar excess of rHDl-apoA-I (% Activity Stimulation, delipidated enzyme as reference), six substrates [panel B]", "result": "dark bars: about 650 to 750 % with γ-dodecanoic lactone, δ-valerolactone and δ-nonanoic lactone, about 450 % with TBBL, about 200 to 250 % with phenyl acetate and paraoxon; higher than the 192Q bar with every lactone"}]}
{"protein": "human PON1-192Q (protein) AKLIALTLLGMGLALFRNHQSSYQTRLNALREVQPVELPNCNLVKGIETGSEDLEILPNGLAFISSGLKYPGIKSFNPNSPGKILLMDLNEEDPTVLELGITGSKFDVSSFNPHGISTFTDEDNAMYLLVVNHPDAKSTVELFKFQEEEKSLLHLKTIRHKLLPNLNDIVAVGPEHFYGTNDHYFLDPYLQSWEMYLGLAWSYVVYYSPSEVRVVAEGFDFANGINISPDGKYVYIAELLAHKIHVYEKHANWTLTPLKSLDFNTLVDNISVDPETGDLWVGCHPNGMKIFFYDSENPPASEVLRIQNILTEEPKVTQVYAENGTVLQGSTVASVYKGKLLIGTVFHKALYCEL", "values": [{"measurement": "A2 (%), amplitude of the slow phase of inactivation on apoA-I rHDL", "result": 72, "unit": "%"}, {"measurement": "stated: enzymatic activity stimulated by a 50-fold molar excess of rHDl-apoA-I (% Activity Stimulation, delipidated enzyme as reference), six substrates [panel B]", "result": "white bars: about 280 % with γ-dodecanoic lactone, about 420 to 440 % with δ-valerolactone and δ-nonanoic lactone, about 250 % with TBBL, about 170 to 210 % with phenyl acetate and paraoxon; lower than the 192R bar with every lactone, close to it with phenyl acetate and paraoxon"}]}
